From patent publication US20230242616A1, “CHEMOKINE-SELECTIVE CXCR4 ECTODOMAIN-DERIVED (POLY)PEPTIDE” (Ludwig-Maximilians-Universität München, priority 2020, published 2023)

Columns and labels:
CXCL12 (human) = CXCL12 (human) (UniProt P48061); assay: fluorescence spectroscopic titration, apparent KD; Fluos-labelled peptide (5 nM) titrated with CXCL12
[1] = biological target: msR4M-L1 (CXCR4-ECL1[97-110]-6-Ahx-12-Ado-ECL2[182-196]) (human); assay: fluorescence spectroscopic titration, self-assembly; Fluos-msR4M-L1 titrated with unlabelled msR4M-L1
[2] = biological target: human macrophage migration-inhibitory factor (MIF) (human) (UniProt P14174); assay: fluorescence spectroscopic titration
[3] = biological target: human macrophage migration-inhibitory factor (MIF) (human) (UniProt P14174); assay: fluorescence spectroscopic titration, apparent Kd; Fluos-ngm titrated with MIF
[4] = biological target: human macrophage migration-inhibitory factor (MIF) (human) (UniProt P14174); assay: cell-based or functional assay
[5] = biological target: human macrophage migration-inhibitory factor (MIF) (human) (UniProt P14174); assay: fluorescence spectroscopic titration, apparent Kd; Alexa-488-MIF titrated with ngm
[6] = biological target: human macrophage migration-inhibitory factor (MIF) (human) (UniProt P14174); assay: fluorescence spectroscopic titration of Alexa-MIF with increasing ngm-L5 [panel D]

Chain of human macrophage migration-inhibitory factor (MIF) (human) (P14174 2-115 limits assumed): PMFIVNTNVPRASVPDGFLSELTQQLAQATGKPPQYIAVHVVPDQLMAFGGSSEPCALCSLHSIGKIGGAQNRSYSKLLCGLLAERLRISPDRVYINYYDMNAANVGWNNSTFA
Chain of CXCL12 (human) (P48061 22-89 limits assumed): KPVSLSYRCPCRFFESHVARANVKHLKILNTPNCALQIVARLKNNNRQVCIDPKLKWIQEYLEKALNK

| Kd (CXCL12 (human)) [nM] | Kd [1] [nM] | Kd [2] [nM] | Kd [3] [nM] | Atherogenic inhibitory activity (Dil-LDL uptake) (% of full-length msR4M-L1) [4] | Kd [5] [nM] | IC50 of inhibition of MIF-triggered Dil-oxLDL uptake (foam cell assay) [4] [nM] | EC50 (read off the curve) [6] [nM] | Substance |
| --- | --- | --- | --- | --- | --- | --- | --- | --- |
| > 5000 | 142 | – | – | – | – | – | – | msR4M-L1 (CXCR4-ECL1[97-110]-6-Ahx-12-Ado-ECL2[182-196]) (designed binder) |
| – | – | 14 | 44.4 | 80 | 11.7 | – | – | msR4M-L3 ([ECL1(102-110)]-6 Ahx-12 Ado-[ECL2(187-195)]) (designed binder) |
| – | – | 12 | 11.9 | 80 | 43.2 | – | – | msR4M-L4 ([ECL1(102-110)]-8 Aoc-[ECL2(187-195)]) (designed binder) |
| – | – | 14 | 14.3 | 30 | 41.8 | 69.7 | 40 | msR4M-L5 ([ECL1(102-110)]-O1pen-O1pen-[ECL2(187-195)]) (designed binder) |
